# Experiments:
# human GIPR (human) = human GIPR (human) (UniProt P48546)
# [1] = target: Xenopus GCRP receptor (Xenopus)
# [2] = target: chicken GCRP receptor (chicken)
# Human GCG (peptide), sequence (peptide): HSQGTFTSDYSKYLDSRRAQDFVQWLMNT
# Human GLP1 (peptide), sequence (peptide): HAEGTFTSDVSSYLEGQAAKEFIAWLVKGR
# human GIPR (human), sequence (P48546 22-466): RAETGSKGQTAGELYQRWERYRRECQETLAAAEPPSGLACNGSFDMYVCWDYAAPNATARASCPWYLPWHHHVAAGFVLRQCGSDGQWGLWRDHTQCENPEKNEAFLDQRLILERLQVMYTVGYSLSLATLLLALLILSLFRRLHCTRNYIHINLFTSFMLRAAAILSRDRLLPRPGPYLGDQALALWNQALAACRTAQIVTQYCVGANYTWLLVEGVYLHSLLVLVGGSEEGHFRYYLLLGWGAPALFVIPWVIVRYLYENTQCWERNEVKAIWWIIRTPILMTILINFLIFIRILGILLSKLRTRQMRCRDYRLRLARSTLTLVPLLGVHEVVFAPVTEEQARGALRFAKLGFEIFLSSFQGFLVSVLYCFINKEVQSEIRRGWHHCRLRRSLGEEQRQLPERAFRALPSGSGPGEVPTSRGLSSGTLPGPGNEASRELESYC
"CRE-luc reporter, HEK293T cells with the receptor: EC50 [1]","CRE-luc reporter, HEK293T cells with the receptor: Emax (fold induction) [1]","CRE-luc reporter, HEK293T cells with the receptor: EC50 [2]","CRE-luc reporter, HEK293T cells with the receptor: Emax (fold induction) [2]",Substance,"CRE-luc reporter, HEK293T cells with the receptor: EC50 (human GIPR (human))"
,,,,Exendin-4 (peptide),100 nM
49.4 nM,32.7,35.3 nM,6.3,Human GCG (peptide),
391 nM,35,120 nM,6.24,Human GLP1 (peptide),
